Assay results: paper PMC10791742 (Nature Communications, 2024)
Where a chain is given by its changes, count along the chain named.

B1: E02(Fab) (Fab, V domains shown)
VH: QVQLLESGGGLVQPGRSLRLSCAASGFTFSSYGLHWVRQAPGKGLEWVAVISYDGSNKYYADSVKGRFTISRDNSKNTLYLQMNSLRAEDTAVYYCASTLQQLDAFDIWGQGTLVTVSS
VL: NFMLTQPHSVSESPGKTVTISCTRSSGSIASNYVQWYQQRPGTSPTIMIYEDNQRPSGVPDRFSGAIDSSSNSASLTISGLKTEDEADYYCQSYDSSSVVFGGGTKVTVL
notes: also called TPL0039_05_E02
B2: E02(LALA + YTE) human IgG1 (antibody, V domains shown)
VH: B1 VH
VL: B1 VL
notes: also called TPL0039_05_E02
B3: TPL0039_05_G08 IgG1 (LALA + YTE) (antibody, V domains shown)
VH: EVQLVESGGGVVQPGRSLRLSCAASGFTFSSYGMHWVRQAPGKGLEWVAVISYDGSNKYYADSVKGRFTISRDNSKNTLYLQMNSLRAEDTAVYYCARTNYDSGDAFDIWGQGTLVTVSS
VL: B1 VL with T43S, I47T, M48V, A66S, S98T, V107L
notes: also called G08(LALA + YTE); copies: 2 + 2
B4: TPL0039_05_B04 IgG1 (LALA + YTE) (antibody, V domains shown)
VH: EVQLLESGGGVVQPGRSLRLSCAASGFTFSSYGMHWVRQAPGKGLEWVAVISYDGSNKYYADSVKGRFTISRDNSKNTLYLQMNSLRAEDTAVYYCARVGENEAFDIWGQGTMVTVSS
VL: B1 VL with S31R, T43S, S44A, I47T, M48V, A66S, S98T, V107L
notes: also called B04(LALA + YTE); copies: 2 + 2
B5: TPL0039_05_B12 IgG1 (LALA + YTE) (antibody, V domains shown)
VH: B4 VH with L5V, R98G, V99W, G100T, N102G, E103D, M113L
VL: B1 VL with T43S, S44A, T46S, I47T, M48V, Q54R, A66S, S70A, V107I
notes: also called B12(LALA + YTE); copies: 2 + 2
B6: TPL0039_05_E02 IgG1 (LALA + YTE) (antibody, V domains shown)
VH: B1 VH
VL: B1 VL
notes: also called E02(LALA + YTE); copies: 2 + 2
B7: TPL0039_05_E02 Fab (Fab, V domains shown)
VH: B1 VH
VL: B1 VL
notes: also called Fab E02; source: Expi293F, transient expression, purified (anti-CH1 resin, desalted into PBS)
B8: TPL0039_05_A03 IgG1 (LALA + YTE) (antibody, V domains shown)
VH: B1 VH with L5V, V12A, Q13K, A24V, L34M, L114M
VL: B1 VL with V18I, T43S, S44V, I47P, M48V, N53D, Q54R, A66S, V107I
notes: also called A03(LALA + YTE); copies: 2 + 2
B9: TPL0039_05_F04 IgG1 (LALA + YTE) (antibody, V domains shown)
VH: QVQLVESGGGVVQPGRSPRLSCAASGFTFSSYGMHWVRQAPGKGLEWVAVISYDGSNKYYADSVKGRFTISRDNSKNTLYLQMNSLRAEDTAVYYCAKDLEYSSSSWGQGTLVTVSS
VL: B1 VL with Y37F, T43S, I47T, M48V, N53D, A66S, D88T, Y90F, S98T
notes: also called F04(LALA + YTE); copies: 2 + 2

What was measured:
[1] = biological target: T1, myotoxin II from Bothrops asper (Bothrops asper, UniProt P24605); experiment: BLI; […]) biosensors; Fab or IgG at 0, 1, 10 and 100 nM; 600 s association, 600 s dissociation; […]; 1:1 binding model, […]; settings: both partners purified
T1 construct: also called Mt; Lys49 PLA2-like toxin
T1 sequence (P24605 17-137): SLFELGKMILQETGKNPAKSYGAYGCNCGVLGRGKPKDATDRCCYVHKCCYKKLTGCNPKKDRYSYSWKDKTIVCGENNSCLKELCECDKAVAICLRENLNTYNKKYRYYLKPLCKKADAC

[2] = biological target: T2, myotoxin II from Bothrops asper (Bothrops asper, UniProt P24605); experiment: BLI; […]) biosensors ([…] (0, 1, 10, 100 nM; […]; settings: both partners purified
T2 construct: also called Mt; M2; source: purified from Bothrops asper venom (CM-Sephadex C25, RP-HPLC), biotinylated
T2 sequence (P24605 17-137): as above

Binder	Kd [1]	Kd [2]	koff [2]	kon [2]
B1	2.4 nM			
B2	< 0.001 nM			
B3		< 0.001 nM	< 1e-07 s⁻¹	245000 M⁻¹ s⁻¹
B4		0.0758 nM	6.53e-05 s⁻¹	861000 M⁻¹ s⁻¹
B5		< 0.001 nM	< 1e-07 s⁻¹	685000 M⁻¹ s⁻¹
B6			< 1e-07 s⁻¹	491000 M⁻¹ s⁻¹
B7			0.000872 s⁻¹	360000 M⁻¹ s⁻¹
B8		< 0.001 nM	< 1e-07 s⁻¹	648000 M⁻¹ s⁻¹
B9		0.0181 nM	1.31e-05 s⁻¹	723000 M⁻¹ s⁻¹
